Marks after values point to notes of the source that are not given here. Each block holds one molecule with its values, some of them ahead of it.
Key:
[1] = biological target: T1, bovine pancreatic trypsin (Bos taurus, UniProt P00760); assay: Shake flask screen: trypsin inhibition after growth, 2-mercaptoethanol activation and acid/heat treatment; assay type: biochemical; details: for BBIt-AV yield after acid/heat treatment relative to unmodified BBIt-AV: activated with 2-mercaptoethanol
T1 construct: purchased Worthington (Worthington Biochemical Corp.)
T1 sequence (P00760 24-246): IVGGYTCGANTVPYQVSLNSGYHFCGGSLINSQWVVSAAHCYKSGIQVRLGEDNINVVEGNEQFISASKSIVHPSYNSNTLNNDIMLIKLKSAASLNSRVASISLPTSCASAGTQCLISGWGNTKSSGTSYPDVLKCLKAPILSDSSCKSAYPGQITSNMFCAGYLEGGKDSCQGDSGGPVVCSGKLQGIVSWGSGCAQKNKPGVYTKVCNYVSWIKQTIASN
Experimental: To increase expression, the gene copy of the selected clones was amplified by sequentially streaking colonies on Luria agar plates with 25 μg/ml chloramphenicol until the growth rate was similar to growth on Luria agar plates without chloramphenicol. Cultures of the selected variants and controls were grown in 3 ml Luria broth with 25 μg/ml chloramphenicol in 15 ml tubes for ˜10 h. These cultures (30 μl) were then used to inoculate 30 ml of MBD medium in 250 ml baffled shake flasks and grown at 37° C. and 225 rpm for ˜60 h.
For selection of the variants with the best yields, the culture broths were processed as follows. The broth was first activated by mixing 20 ml of broth with 20 ml of 0.25 M glycine buffer (pH 9.3) and the pH was adjusted to 9.0 with 50% NaOH. Then, 2-mercaptoethanol was added to the diluted cultures to a final concentration of 2 mM and the cultures were incubated overnight at room temperature with gentle shaking. The BBIt-AV moiety was then cleaved from the fusion protein by acid/heat treatment, which was accomplished by first adjusting the pH of the activated broth to pH 1.9-2.0 with sulfuric acid, and followed by incubation at 60° C. for 16 hours, with shaking. The BBIt-AV-BCE fusion protein and the BCE catalytic domain are not soluble at pH 2, whereas the free BBI species is soluble. After the cleavage reaction, the insoluble material was removed by centrifugation (5 min. at 3,000 rpm) and the supernatant was analyzed for trypsin inhibitory activity as described above. The BBI activity was also determined for the starting material and for the samples taken after activation. The BCE activity of the starting material was also determined as described above. The BBIt-AV:BCE activity ratios were then calculated for each step in process. The modified BBIt-AVs produced at the highest yields following the acid/heat treatment were selected for further study.

[2] = biological target: T1, bovine pancreatic trypsin; assay: BBIt-AV:BCE activity ratio, microtiter plate screens (primary, quadruplicate secondary); assay type: biochemical; details: single substitution in BBIt-AV, in the presence of reducing agent
Experimental: The cultures in each master plate were thawed and a pin replicator was used to inoculate a new sterile microtiter plate containing 150 μl of Luria broth with 5 μg/ml chloramphenicol in each well. The plates were grown for ˜10 hrs in a humidified and aerated box as described above. For controls, the cultures in two wells were replaced with BBI and BBI-AV cultures that had been grown concurrently in 15 ml culture tubes (5 ml of Luria broth with 5 μg/ml chloramphenicol). After the cultures were grown, the plate was used to inoculate two duplicate 96-well filter plates (Millipore, MSGV2210) containing 150 μl of MBD medium (Vogtentanz et al., 2007) with 5 μg/ml chloramphenicol in each well by using a pin replicator. The duplicate plates were grown for ˜14 hours (as above, with plastic spacers placed between the stacked plates to allow for efficient air flow around the plates) and then 2-mecaptoethanol was added to each well in one of the plates to a final concentration of 2 mM. The plates were then grown for an additional ˜46 hours. The 96-well filter plates containing the culture broth (with or without added 2-mecaptoethanol) were then assayed for BBI and BCE activity.
Libraries were analyzed using dilutions of cultures grown in 96-well plates. Typically, the culture broth from each well was diluted (200 fold) in Assay Buffer (100 mM Tris pH 8.6, 0.005% Tween 80) and transferred to a second microtiter plate (CoStar 9017, Corning, Inc., Corning, N.Y.). Then, 20 μl of the diluted samples were transferred to a third microtiter plate. A standard curve was created by adding 20, 10, 5 or 2.5 μl of the diluted sBBI (SEQ ID NO:13) control culture to empty wells. Then, 80 μL of 50 ng/ml trypsin (bovine pancreatic trypsin, Worthington Biochemical Corp., Lakewood, N.J.) (prepared from a 1 mg/mL stock solution diluted into Assay Buffer) was added to each well of the plate. The reactions were mixed and incubated 15 min at room temperature. After the incubation, 100 μL of 0.5 mg/ml trypsin substrate (succinyl-Ala-Ala-Pro-Arg-para-nitroanilide, Bachem Bioscience, Inc., King of Prussia, Pa.), diluted in Assay Buffer from a 100 mg/ml solution in DMSO, was added to each well, mixed, and the absorbance at 405 nm was monitored for 15 min, with 1 time point recorded every 12 sec using a Spectra Max 250 (Molecular Devices). The data points were used to determine the rate for each reaction. The standard curve was generated by plotting the reaction rate versus the BBI volume and was fitted to a four-parameter equation. All data fitting was done using software supplied by the manufacturer (Molecular Devices Corp., Sunnyvale, Calif.). The activity of each BBIt-AV variant was calculated from the standard curve. Thus, the activities of all modified variant proteins were determined relative to the activity in the sBBI control (BBI-WT) culture.
The concentration of BCE was determined by an activity assay using purified BCE as a standard as described above and by (Vogtentanz et al. 2007). For the analysis of libraries grown in 96-well microtiter plates, 20 μl of culture broth were transferred to each well of a new microtiter plate. A standard curve was created by adding 20, 10, 5 or 2.5 μl of the diluted BBI-WT control culture to these empty wells. Then, 180 μl of the BCE substrate (0.25 μg/ml in Assay Buffer), 4-nitrophenyl β-D-cellobioside (Sigma, St. Louis, Mo.), was added to the plate. The plate was mixed and the absorbance at 405 nm monitored for 15 min, with 1 time point recorded every 12 s using a Spectra Max 250 (Molecular Devices Corp., Sunnyvale, Calif.). The data points were used to determine the rate for each reaction. The standard curve was generated by plotting rate versus culture volume and was fit to a quadratic curve. The BCE concentration in each variant culture was determined relative to the standard control culture. […]

- yield after acid/heat treatment relative to BBIt-AV-A13I-L29P-A40K-F50T-V52A (SEQ ID NO:601) [1]: somewhat less
B1: BBIt-AV-A13I-M27R-L29P-A40K-F50T-V52A: modified variant BBPI, SEQ ID NO:619 (protein)
chain: DPDDESSKPCCDQCICTKSNPPQCRCSDRRPNSCHSACKSCKCYNLYGWTCTCADITDFCYEPCKPSE
modifications: synthetic BBPI variant

- yield after acid/heat treatment relative to BBIt-AV-A13I-L29P-A40K-F50T-V52A (SEQ ID NO:601) [1]: somewhat less
B2: BBIt-AV-A13I-L29P-S31A-A40K-F50T-V52A: modified variant BBPI, SEQ ID NO:621 (protein)
chain: DPDDESSKPCCDQCICTKSNPPQCRCSDMRPNACHSACKSCKCYNLYGWTCTCADITDFCYEPCKPSE
modifications: synthetic BBPI variant

- yield after acid/heat treatment, better than V52L [1]: about 40%
- activation level (BBIt-AV:BCE activity ratio after reducing agent) ([1]; single substitutions in BBIt-AV): activate to similar levels
B3: M27A: BBIt-AV (SEQ ID NO:187) with single substitution M27A (protein)
chain: DDESSKPCCDQCACTKSNPPQCRCSDARLNSCHSACKSCACYNLYGWTCFCVDITDFCYEPCKPSE
modifications: synthetic BBIt-AV sequence

B4: E60K: BBIt-AV (SEQ ID NO:187) with single substitution E60K (protein)
chain: DDESSKPCCDQCACTKSNPPQCRCSDMRLNSCHSACKSCACYNLYGWTCFCVDITDFCYKPCKPSE
modifications: synthetic BBIt-AV sequence
- relative activity of the amino acid substitution (BBI:BCE activity ratio vs BBIt-AV), amino acid present in BBIsb3-AV [2]: K (+/−)
- relative activity of the amino acid substitution (BBI:BCE activity ratio vs BBIt-AV), amino acid present in BBItc-AV [2]: K (+/−)

B5: I54T: BBIt-AV (SEQ ID NO:187) with single substitution I54T (protein)
chain: DDESSKPCCDQCACTKSNPPQCRCSDMRLNSCHSACKSCACYNLYGWTCFCVDTTDFCYEPCKPSE
modifications: synthetic BBIt-AV sequence
- relative activity of the amino acid substitution (BBI:BCE activity ratio vs BBIt-AV), amino acid present in BBIsb3-AV [2]: T (−)****

B6: T55N: BBIt-AV (SEQ ID NO:187) with single substitution T55N (protein)
chain: DDESSKPCCDQCACTKSNPPQCRCSDMRLNSCHSACKSCACYNLYGWTCFCVDINDFCYEPCKPSE
modifications: synthetic BBIt-AV sequence
- relative activity of the amino acid substitution (BBI:BCE activity ratio vs BBIt-AV), amino acid present in BBIsb3-AV [2]: N (+/−)

B7: S4V: BBIt-AV (SEQ ID NO:187) with single substitution S4V (protein)
chain: DDEVSKPCCDQCACTKSNPPQCRCSDMRLNSCHSACKSCACYNLYGWTCFCVDITDFCYEPCKPSE
modifications: synthetic BBIt-AV sequence
- BBIt-AV yield after acid/heat treatment relative to unmodified BBIt-AV [1]: improved yields after acid/heat treatment

B8: S5P: BBIt-AV (SEQ ID NO:187) with single substitution S5P (protein)
chain: DDESPKPCCDQCACTKSNPPQCRCSDMRLNSCHSACKSCACYNLYGWTCFCVDITDFCYEPCKPSE
modifications: synthetic BBIt-AV sequence
- BBIt-AV yield after acid/heat treatment relative to unmodified BBIt-AV [1]: improved yields after acid/heat treatment

B9: S65E: BBIt-AV (SEQ ID NO:187) with single substitution S65E (protein)
chain: DDESSKPCCDQCACTKSNPPQCRCSDMRLNSCHSACKSCACYNLYGWTCFCVDITDFCYEPCKPEE
modifications: synthetic BBIt-AV sequence
- BBIt-AV yield after acid/heat treatment relative to unmodified BBIt-AV [1]: improved yields after acid/heat treatment

B10: I54M: BBIt-AV (SEQ ID NO:187) with single substitution I54M (protein)
chain: DDESSKPCCDQCACTKSNPPQCRCSDMRLNSCHSACKSCACYNLYGWTCFCVDMTDFCYEPCKPSE
modifications: synthetic BBIt-AV sequence
- relative activity of the amino acid substitution (BBI:BCE activity ratio vs BBIt-AV), amino acid present in BBIdb-AV [2]: M (−)

B11: Q11G: BBIt-AV (SEQ ID NO:187) with single substitution Q11G (protein)
chain: DDESSKPCCDGCACTKSNPPQCRCSDMRLNSCHSACKSCACYNLYGWTCFCVDITDFCYEPCKPSE
modifications: synthetic BBIt-AV sequence
- BBIt-AV yield after acid/heat treatment relative to unmodified BBIt-AV [1]: improved yields after acid/heat treatment

B12: T55K: BBIt-AV (SEQ ID NO:187) with single substitution T55K (protein)
chain: DDESSKPCCDQCACTKSNPPQCRCSDMRLNSCHSACKSCACYNLYGWTCFCVDIKDFCYEPCKPSE
modifications: synthetic BBIt-AV sequence
- relative activity of the amino acid substitution (BBI:BCE activity ratio vs BBIt-AV), amino acid present in BBIdb-AV [2]: K (−)

B13: S38N: BBIt-AV (SEQ ID NO:187) with single substitution S38N (protein)
chain: DDESSKPCCDQCACTKSNPPQCRCSDMRLNSCHSACKNCACYNLYGWTCFCVDITDFCYEPCKPSE
modifications: synthetic BBIt-AV sequence
- BBIt-AV yield after acid/heat treatment relative to unmodified BBIt-AV [1]: improved yields after acid/heat treatment

- BBIt-AV:BCE activity ratio after acid/heat treatment ([1]; relative to unmodified BBIt-AV): higher
B14: 4D13BBIt-AV: BBIt-AV with 13 amino acid 4D13 insert (SEQ ID NO:389) at the N-terminus, SEQ ID NO:390 (protein)
chain: DDEPSKPCCDPDPDDESSKPCCDQCACTKSNPPQCRCSDMRLNSCHSACKSCACYNLYGWTCFCVDITDFCYEPCKPSE
modifications: synthetic BBI sequence

Reference: US7772181B2, “Personal care compositions comprising modified variant Bowman Birk Protease Inhibitors” (Danisco US Inc., priority 2008, dated 2010)
